{"source": "paper doi:10.1101/2022.07.22.500997", "about": "(bioRxiv, 2022)", "molecules": {"B1": {"name": "Noc_(GH172) (O3I_017420), DUF2961 / GH172 enzyme from Nocardia brasiliensis (enzyme)", "chain": "MTPPRRSELWLLDDTRTRSVSAENPTGAPGGGARATTGTGAHAARLLGPGWKISPSIVLGDGETATLADVSGPGVLRHCWLTTDRAALRELTLRMYWDDAAEPAIDVPLGDFFCNGWDELALVDSEMVVVAPAGGLNSYWPMPFRRRARITLENHCGRSVPVYYQITYGEEDVPGEAGYLHARWSRSAPLGSPAVHTLLDTGPARGRYVGTYLAIRPGAPRWWGEGEMKFYLDGDDEYPTLCGTGTEDYFGGAWNFDMDGKYRTYSTAYLGLPQALPADEIYQAHQRFGMYRWHVHDPICFHRELRVTVQGLGWRDSDTYLPLEDAEIATTVWWYQEVPPSG"}}, "key": {"[1]": {"target": "Myc_(GH172) (GII36_05205), DUF2961 / GH172 enzyme from Candidatus Mycosynbacter amalyticus (Candidatus Mycosynbacter amalyticus)", "assay": "SEC-MALS"}, "[2]": {"target": "Dg_(GH172a) (HMPREF9455_02467), DUF2961 / GH172 exo-D-arabinofuranosidase from Dysgonomonas gadei (Dysgonomonas gadei) (UniProt F5IZF0)", "assay": "SEC-MALS"}, "[3]": {"target": "Dg_(GH172b) (HMPREF9455_02471), DUF2961 / GH172 exo-D-arabinofuranosidase from Dysgonomonas gadei (Dysgonomonas gadei) (UniProt F5IZF4)", "assay": "SEC-MALS"}, "[4]": {"target": "Dg_(GH172c) (HMPREF9455_02479), DUF2961 / GH172 exo-D-arabinofuranosidase from Dysgonomonas gadei (Dysgonomonas gadei) (UniProt F5IZG2)", "assay": "SEC-MALS"}, "[5]": {"target": "Dg_(GH172c) (HMPREF9455_02479), DUF2961 / GH172 exo-D-arabinofuranosidase from Dysgonomonas gadei (Dysgonomonas gadei) (UniProt F5IZG2)", "assay": "crystal structure"}, "SEC-MALS": {"target": "the molecule itself", "assay": "SEC-MALS"}}, "data": [{"molecule": "Myc_(GH172) (GII36_05205), DUF2961 / GH172 enzyme from Candidatus Mycosynbacter amalyticus", "values": [{"measurement": "stoichiometry N", "setting": "[1]", "value": 3}]}, {"molecule": "Dg_(GH172a) (HMPREF9455_02467), DUF2961 / GH172 exo-D-arabinofuranosidase from Dysgonomonas gadei (from UniProt F5IZF0 1-386) (enzyme)", "values": [{"measurement": "stoichiometry N", "setting": "[2]", "value": 12}]}, {"molecule": "Dg_(GH172b) (HMPREF9455_02471), DUF2961 / GH172 exo-D-arabinofuranosidase from Dysgonomonas gadei (from UniProt F5IZF4 1-643) (enzyme)", "values": [{"measurement": "stoichiometry N", "setting": "[3]", "value": 2}]}, {"molecule": "Dg_(GH172c) (HMPREF9455_02479), DUF2961 / GH172 exo-D-arabinofuranosidase from Dysgonomonas gadei (from UniProt F5IZG2 1-402) (enzyme)", "values": [{"measurement": "stoichiometry N", "setting": "[4]", "value": 6}, {"measurement": "stoichiometry N", "setting": "[5]", "value": 6}]}, {"molecule": "B1", "values": [{"measurement": "stoichiometry N", "setting": "SEC-MALS", "value": 3}]}]}
